The values that follow come from patent publication US20130123350, “NUCLEIC ACID MOLECULE CAPABLE OF BINDING TO c-MET AND USE THEREOF” (KANAGAWA PREFECTURAL HOSPITAL ORGANIZATION, published 2013).

To fix the notation:
B1: g1-u5del (ssRNA)
RNA: GGGCACGUACGCUAAACACACUGAGAGUUUGACCAGCUAUUAAAUGGGUCGUGACUCAGUGCCUGGACGUGCAG
B2: g32 (ssRNA)
RNA: GGGACGCUCACGUACGCUAAACAAGACCGGGAUGGGGGUUGGUCACACACAAAGACUGAAUCAGUGCCUGGACGUGCAGU
B3: g16 (ssRNA)
RNA: GGGACGCUCACGUACGCUAACCGCUACCGGGUGCAACGGGUAGACUGUAACCAGGUGAUAUCAGUGCCUGGACGUGCAGU
B4: g30 (ssRNA)
RNA: GGGACGCUCACGUACGCUAAAAAUUGCCGGGAUCUGGUGUGGCGACCAUGCGGCGUGCAUUCAGUGCCUGGACGUGCAGU
B5: g18 (ssRNA)
RNA: GGGACGCUCACGUACGCUAAGGCACCCUAUAGGAUUCAGCCCCUAACCCGGUGUUGUGAAUCAGUGCCUGGACGUGCAGU
B6: g10 (ssRNA)
RNA: GGGACGCUCACGUACGCUAAACACAGCUCUGAUGGUCGUGAUUAGGUUGACCACCUACCUUCAGUGCCUGGACGUGCAGU
B7: g34 (ssRNA)
RNA: GGGACGCUCACGUACGCUAAUUUGGUGAAUUCCGACCAUUUUGCAAACGGGAUACGGGACUCAGUGCCUGGACGUGCAGU
B8: g27 (ssRNA)
RNA: GGGACGCUCACGUACGCUAACCUAUGCAGACCGACAUCCGGGUAUACGGGAUGAUGCGACUCAGUGCCUGGACGUGCAGU
B9: g26 (ssRNA)
RNA: GGGACGCUCACGUACGCUAAGCUCCACCAGGUGUAGCUAGCCUGUAGACAUCAGUAGCAUCAGUGCCUGGACGUGCAGU
B10: g20 (ssRNA)
RNA: GGGACGCUCACGUACGCUAAACGUUGUGGCGAACUUCGGCCCGAACGGGAGUAACUGCAUCAGUGCCUGGACGUGCAGU
B11: g28 (ssRNA)
RNA: GGGACGCUCACGUACGCUAACCUGGGGGUUCCGCAGGAAUCGGGAACUAGAUUGGUGGUCUCAGUGCCUGGACGUGCAGU
B12: g15 (ssRNA)
RNA: GGGACGCUCACGUACGCUAAGACGCGGGCCACCGGCUAGCGACGGGUGGUAAAGGGCUUGUCAGUGCCUGGACGUGCAGU
B13: g38 (ssRNA)
RNA: GGGACGCUCACGUACGCUAACCAGGAGCAUUAGACCGGGGAAAGAAGGAGUACCGUCUGGUCAGUGCCUGGACGUGCAGU
B14: g36 (ssRNA)
RNA: GGGACGCUCACGUACGCUAACUUGAUUGGUCGCAACCGGACAAGGACGGGUUGAUGCAGUUCAGUGCCUGGACGUGCAGU
B15: g37 (ssRNA)
RNA: GGGACGCUCACGUACGCUAAGGUUUGCUCCGACCGACUAAAGGGAGCCUCUGUCACGAGUUCAGUGCCUGGACGUGCAGU
B16: g29 (ssRNA)
RNA: GGGACGCUCACGUACGCUAAACGAGCCGUGAUUGGGUUGGCAACCCUGCUUAUGUGAGGAUCAGUGCCUGGACGUGCAGU
B17: g22 (ssRNA)
RNA: GGGACGCUCACGUACGCUAAGCGUGUUUCUUCAUUUCGACGCUGGCCAACGGAAAUGCAAUCAGUGCCUGGACGUGCAGU
B18: g12 (ssRNA)
RNA: GGGACGCUCACGUACGCUAACGCGGCCAUCCGGCGUUUGGAACGGGAUGUACACCUGACAUCAGUGCCUGGACGUGCAGU
B19: g24 (ssRNA)
RNA: GGGACGCUCACGUACGCUAAGAGUUGUCGCACAGCGACUCGAAAAUAAUCUGUCCGACACUCAGUGCCUGGACGUGCAGU
B20: g21 (ssRNA)
RNA: GGGACGCUCACGUACGCUAACCUUGGUGUCAUCCGACCAAAUUAGAACGGGAUGAGGAAGUCAGUGCCUGGACGUGCAGU
B21: g23 (ssRNA)
RNA: GGGACGCUCACGUACGCUAAAUGGGAGUGCGCCUCGGCUCUAACGGAGGUAUGCACGUCAUCAGUGCCUGGACGUGCAGU
B22: g33 (ssRNA)
RNA: GGGACGCUCACGUACGCUAAACUUUUGGCGAUCUCCGGCCGGAUACGGGAGAACGAGGUAUCAGUGCCUGGACGUGCAGU
B23: g17 (ssRNA)
RNA: GGGACGCUCACGUACGCUAAAGUGAUGGCCGGCUGGAGAAACGGGCCACUCGAUCCAGGUCAGUGCCUGGACGUGCAGU
B24: g14 (ssRNA)
RNA: GGGACGCUCACGUACGCUAAUCAUCGGGACAUCGGAUGGAACGGGUGUCAAGAAGCGUGUUCAGUGCCUGGACGUGCAGU
B25: g11 (ssRNA)
RNA: GGGACGCUCACGUACGCUAAGUUUAGGUGGCAUCGACCUUCAUGAAACGGGUGCACAGGCUCAGUGCCUGGACGUGCAGU
B26: g35 (ssRNA)
RNA: GGGACGCUCACGUACGCUAAGAUUUGUGUGAUACCCGACACUCUAACGGGGUAGCAGGGCUCAGUGCCUGGACGUGCAGU
B27: g19 (ssRNA)
RNA: GGGACGCUCACGUACGCUAAGUAGCCGUGAUUGGGUUGGCUGCCCACAAUUAUCCAGGACUCAGUGCCUGGACGUGCAGU
B28: g31 (ssRNA)
RNA: GGGACGCUCACGUACGCUAAAGAGUCUAUGCCGUGAGUGAGGGUGGCGCCUCGACUGCCAUCAGUGCCUGGACGUGCAGU
B29: g25 (ssRNA)
RNA: GGGACGCUCACGUACGCUAAUAGCAACAGUUCCCAGAGGUGAUCAGGCAGCCUUAAGACAUCAGUGCCUGGACGUGCAGU
B30: g13 (ssRNA)
RNA: GGGACGCUCACGUACGCUAAUCACUCGGACAGCCGGAGCGAAACGGGCUGUGUAAGACUGUCAGUGCCUGGACGUGCAGU

The first data set deals with T1, rec-cMet (Recombinant Human HGF R/c-MET/Fc Chimera) (Homo sapiens, UniProt P08581;P08581 SEQ:1-283,SEQ:1-625). As to the kind of experiment: ELONA; signal higher than g1. To be noted: tags: C-terminal HIEGRMD linker, human IgG Fc (100-330), 6xHis; R&D Systems; chain copies: 2 (inferred, Fc chimera). The method, then: An anti-IgG antibody (trade name: “Human IgG-Fc Antibody”, Bethyl Laboratories) was adsorbed on a 96-well plate (Iwaki, AGC Techno Glass Co., Ltd., Japan), and then was subjected to blocking using 1% bovine serum albumin. Subsequently, 50 μL of the 1 μg/mL rec-cMet was added to the plate. Further, Tris (20 mmol/L), sodium chloride (100 mmol/L), magnesium acetate (0.1 mmol/L) and Triton (registered trademark)-X100 (0.2%) were added to the plate so that their final concentrations would be as shown in the parentheses. The plate was incubated at room temperature for 3 hours, thus causing the rec-cMet to bind to the plate. After the incubation, the plate was washed three times with a washing solution. The composition of the washing solution was as follows: 20 mmol/L Tris, 100 mmol/L sodium chloride, 0.1 mmol/L magnesium acetate, and 0.2% Triton (registered trademark)-X100. As a control, incubation and washing were carried out in the same manner, except that 50 μL of the washing solution was added instead of 50 μL of the rec-cMet.
T1 sequence (P08581 25-307, change not shown, chain 1 of 2): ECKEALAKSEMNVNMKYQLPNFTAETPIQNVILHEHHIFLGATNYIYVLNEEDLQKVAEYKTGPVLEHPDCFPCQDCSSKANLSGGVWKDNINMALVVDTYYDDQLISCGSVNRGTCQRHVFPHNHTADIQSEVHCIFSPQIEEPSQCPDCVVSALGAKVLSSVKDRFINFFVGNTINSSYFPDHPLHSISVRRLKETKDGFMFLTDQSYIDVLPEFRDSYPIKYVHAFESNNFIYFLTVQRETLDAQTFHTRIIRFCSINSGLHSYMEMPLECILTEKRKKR
T1 sequence (P08581 308-932, change not shown, chain 2 of 2): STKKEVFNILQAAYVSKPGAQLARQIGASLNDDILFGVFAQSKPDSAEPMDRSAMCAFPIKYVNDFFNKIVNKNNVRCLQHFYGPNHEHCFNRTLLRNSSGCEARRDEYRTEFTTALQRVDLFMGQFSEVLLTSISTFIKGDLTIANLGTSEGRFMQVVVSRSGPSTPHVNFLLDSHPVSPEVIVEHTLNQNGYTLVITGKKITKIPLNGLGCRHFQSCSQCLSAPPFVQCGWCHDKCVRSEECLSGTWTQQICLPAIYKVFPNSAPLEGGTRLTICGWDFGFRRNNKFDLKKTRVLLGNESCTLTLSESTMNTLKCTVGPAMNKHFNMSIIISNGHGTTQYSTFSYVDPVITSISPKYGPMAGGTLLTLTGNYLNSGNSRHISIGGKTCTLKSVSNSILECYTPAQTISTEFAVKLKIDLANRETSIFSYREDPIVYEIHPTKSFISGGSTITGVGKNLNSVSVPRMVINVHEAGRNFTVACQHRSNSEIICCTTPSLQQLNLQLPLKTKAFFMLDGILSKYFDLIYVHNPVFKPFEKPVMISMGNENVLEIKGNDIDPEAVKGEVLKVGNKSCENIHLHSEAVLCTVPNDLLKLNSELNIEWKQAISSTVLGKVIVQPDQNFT
Next, a 20-mer polyadenine (poly A) was added to the 3′ end of each of the RNA aptamers. Thus, poly-A-added RNA aptamers were prepared. Each of the poly-A-added RNA aptamers was denatured, and thereafter, the denatured poly-A-added RNA aptamer was mixed with a 20-mer biotinylated polythymine with its 5′ end being biotinylated (740 nmol/L), tRNA (100 μg/mL), and an RNase inhibitor (0.16 units/mL). As a result, complementary binding occurred between the poly A in the poly-A-added RNA aptamer and the polythymine (poly T) in the biotinylated polythymine, whereby a biotin-labeled RNA aptamer was produced. The biotin-labeled RNA aptamer was added to the plate, and the plate was incubated at 4° C. for 30 minutes. Subsequently, the plate was washed, and 0.1 μg/mL HRP-streptavidin (Thermo Fisher Scientific Inc., USA) was added thereto. The plate was then washed, after which a 1-Step Ultra TMB substrate (Thermo Fisher Scientific Inc., USA) was added to the plate to cause color development, and the absorbance at 450 nm was measured.
The binding ability of each of the RNA aptamers to the rec-cMet was examined in the same manner as in Example 1, except that the truncated RNA aptamers were used. Also, the binding ability of the RNA aptamer g1 was examined in the same manner.
On to B1, for which the binding result is recorded as “binds”.

The target of another data set is T1, rec-cMet (Recombinant Human HGF …). Nature of the data set: SPR; rec-cMet 100 nM. The conditions noted are these: tags: C-terminal HIEGRMD linker, human IgG Fc (100-330), 6xHis; R&D Systems; chain copies: 2 (inferred, Fc chimera). Here is the method:
Using these truncated RNA aptamers, the binding ability thereof to the rec-cMet was examined. The binding ability was analyzed using BIACORE (registered trademark) X (GE Healthcare) in accordance with its instructions for use, with the concentration of the rec-cMet being set to 175 nmol/L. Also, the binding ability of each of the RNA aptamers g1 and g1-trA was examined in the same manner. As a comparative example, the 40N was used, and the binding ability thereof was examined in the same manner.
The binding ability of each of the RNA aptamers to the rec-cMet was examined in the same manner as in Example 5, except that the above RNA aptamers were used. The concentration of the rec-cMet was set to 100 nmol/L. With the time point at which the introduction of the rec-cMet to the chip was started being 0 seconds, introduction of a buffer was started 60 seconds later.
Background: Surface plasmon resonance follows binding to a sensor surface in real time, without labels.
As for B2, the binding result is given as “binds”.

In the case of B3, the binding result is recorded as “binds”.

For B4, the binding result is “binds”.

On to B5, for which the binding result was “binds”.

With B6, the binding result was “binds”.

As for B7, the binding result is reported as “binds”.

Regarding B8, the binding result is “binds”.

B9: the binding result was “binds”.

As for B10, the binding result is “binds”.

In the case of B11, the binding result is “binds”.

In the case of B12, the binding result is “binds”.

In the case of B13, the binding result is given as “binds”.

Regarding B14, the binding result is recorded as “binds”.

For B15, the binding result is on record as “binds”.

Turning to B16, the binding result is listed as “binds”.

For B17, the binding result is recorded as “binds”.

For the molecule B18, the binding result is reported as “binds”.

In the case of B19, the binding result is on record as “binds”.

In the case of B20, the binding result is on record as “binds”.

On to B21, for which the binding result was “binds”.

As to B22, the binding result is recorded as “binds”.

In the case of B23, the binding result is “binds”.

Turning to B24, the binding result is “binds”.

As to B25, the binding result is listed as “binds”.

On to B26, for which the binding result is on record as “binds”.

Turning to B27, the binding result is “binds”.

B28: the binding result is listed as “binds”.

Regarding B29, the binding result is “binds”.

B30: the binding result is recorded as “binds”.
